Columns and labels:
[1] = molecular target: human EGFR (huEGFR) over-expressed on mcl-1-/- mouse embryonic fibroblasts (human, UniProt P00533 25-1210); test: cell-based or functional assay
[2] = molecular target: EGFR on EGFR positive non-small cell lung cancer cells NCI-H1650 (UniProt P00533 25-1210); test: cell-based or functional assay

Binder | huEGFR+ mcl-1-/- MEF EC50 [1] [nM] | H1650 CTG-3D EC50 [2] [µg/mL] | H1650 GFP Flourescence EC50 [2] [µg/mL]
AbG-ZZ (antibody, human IgG1, kappa, V domains shown, synthon ZZ on reduced interchain cysteines; average DAR 1.4 per ADC) VH: EVQLQESGPGLVKPSQTLSLTCTVSGYSISNDFAWNWIRQLPGKGLEWMGYISYKGNTRYQPSLKSRITISRDTSKNQFFLKLNSVTAADTATYYCVTASRGLPYWGQGTLVTVSS VL: DIQMTQSPSSMSVSVGDRVTITCHSSQDITYNIGWLQQKPGKSFKGLIYHGANLDDGVPSRFSGSGSGTDYTLTISSLQPEDFATYYCVQYDEFPWTFGGGTKLEIKR | 68 | 0.47 | 0.44
AbB-YG (antibody, human IgG1, kappa, V domains shown, synthon YG on reduced interchain cysteines; average DAR 1.1 per ADC) VH: EVQLQESGPGLVKPSQTLSLTCTVSGYSISNDFAWNWIRQPPGKGLEWMGYISYKGNTRYQPSLKSRITISRDTSKNQFFLKLNSVTAADTATYYCVTASRGFPWWGQGTLVTVSS VL: DIQMTQSPSSMSVSVGDRVTITCHSSQDINSNIGWLQQKPGKSFKGLIYHGTNLDDGVPSRFSGSGSGTDYTLTISSLQPEDFATYYCVQYAQFPWTFGGGTKLEIKR | 3.3 | 3.28 | 1.55
AbG-SE (antibody, human IgG1, kappa, V domains shown, synthon SE on reduced interchain cysteines; average DAR 3.8 per ADC) VH: EVQLQESGPGLVKPSQTLSLTCTVSGYSISNDFAWNWIRQLPGKGLEWMGYISYKGNTRYQPSLKSRITISRDTSKNQFFLKLNSVTAADTATYYCVTASRGLPYWGQGTLVTVSS VL: DIQMTQSPSSMSVSVGDRVTITCHSSQDITYNIGWLQQKPGKSFKGLIYHGANLDDGVPSRFSGSGSGTDYTLTISSLQPEDFATYYCVQYDEFPWTFGGGTKLEIKR | 24 | 0.96 | 0.99
AbB-SR (antibody, human IgG1, kappa, V domains shown, synthon SR on reduced interchain cysteines; average DAR 2.1 per ADC) VH: EVQLQESGPGLVKPSQTLSLTCTVSGYSISNDFAWNWIRQPPGKGLEWMGYISYKGNTRYQPSLKSRITISRDTSKNQFFLKLNSVTAADTATYYCVTASRGFPWWGQGTLVTVSS VL: DIQMTQSPSSMSVSVGDRVTITCHSSQDINSNIGWLQQKPGKSFKGLIYHGTNLDDGVPSRFSGSGSGTDYTLTISSLQPEDFATYYCVQYAQFPWTFGGGTKLEIKR | 7 | 0.62 | 2.1
AbA-YG (antibody, human IgG1, kappa, V domains shown, synthon YG on reduced interchain cysteines; average DAR 1.9 per ADC) VH: EVQLQESGPGLVKPSQTLSLTCTVSGYSISRDFAWNWIRQPPGKGLEWMGYISYNGNTRYQPSLKSRITISRDTSKNQFFLKLNSVTAADTATYYCVTASRGFPYWGQGTLVTVSS VL: DIQMTQSPSSMSVSVGDRVTITCHSSQDINSNIGWLQQKPGKSFKGLIYHGTNLDDGVPSRFSGSGSGTDYTLTISSLQPEDFATYYCVQYAQFPWTFGGGTKLEIKR | 6.4 | 3.8 | 2.84
AbB-KZ (antibody, human IgG1, kappa, V domains shown, synthon KZ on reduced interchain cysteines; average DAR 1.9 per ADC) VH: EVQLQESGPGLVKPSQTLSLTCTVSGYSISNDFAWNWIRQPPGKGLEWMGYISYKGNTRYQPSLKSRITISRDTSKNQFFLKLNSVTAADTATYYCVTASRGFPWWGQGTLVTVSS VL: DIQMTQSPSSMSVSVGDRVTITCHSSQDINSNIGWLQQKPGKSFKGLIYHGTNLDDGVPSRFSGSGSGTDYTLTISSLQPEDFATYYCVQYAQFPWTFGGGTKLEIKR | 55 | 16.5 | 37.7
AbA-SE (antibody, human IgG1, kappa, V domains shown, synthon SE on reduced interchain cysteines; average DAR 2.8 per ADC) VH: EVQLQESGPGLVKPSQTLSLTCTVSGYSISRDFAWNWIRQPPGKGLEWMGYISYNGNTRYQPSLKSRITISRDTSKNQFFLKLNSVTAADTATYYCVTASRGFPYWGQGTLVTVSS VL: DIQMTQSPSSMSVSVGDRVTITCHSSQDINSNIGWLQQKPGKSFKGLIYHGTNLDDGVPSRFSGSGSGTDYTLTISSLQPEDFATYYCVQYAQFPWTFGGGTKLEIKR | 105 | 4 | 4.23
AbA-XW (antibody, human IgG1, kappa, V domains shown, synthon XW on reduced interchain cysteines; average DAR 3.7 per ADC) VH: EVQLQESGPGLVKPSQTLSLTCTVSGYSISRDFAWNWIRQPPGKGLEWMGYISYNGNTRYQPSLKSRITISRDTSKNQFFLKLNSVTAADTATYYCVTASRGFPYWGQGTLVTVSS VL: DIQMTQSPSSMSVSVGDRVTITCHSSQDINSNIGWLQQKPGKSFKGLIYHGTNLDDGVPSRFSGSGSGTDYTLTISSLQPEDFATYYCVQYAQFPWTFGGGTKLEIKR | 32 | > 40 | > 40
AbG-ZT (antibody, human IgG1, kappa, V domains shown, synthon ZT on reduced interchain cysteines; average DAR 1.6 per ADC) VH: EVQLQESGPGLVKPSQTLSLTCTVSGYSISNDFAWNWIRQLPGKGLEWMGYISYKGNTRYQPSLKSRITISRDTSKNQFFLKLNSVTAADTATYYCVTASRGLPYWGQGTLVTVSS VL: DIQMTQSPSSMSVSVGDRVTITCHSSQDITYNIGWLQQKPGKSFKGLIYHGANLDDGVPSRFSGSGSGTDYTLTISSLQPEDFATYYCVQYDEFPWTFGGGTKLEIKR | 33 | 0.1 | 0.08
AbA-AAA (antibody, human IgG1, kappa, V domains shown, synthon AAA on reduced interchain cysteines; average DAR 2 per ADC) VH: EVQLQESGPGLVKPSQTLSLTCTVSGYSISRDFAWNWIRQPPGKGLEWMGYISYNGNTRYQPSLKSRITISRDTSKNQFFLKLNSVTAADTATYYCVTASRGFPYWGQGTLVTVSS VL: DIQMTQSPSSMSVSVGDRVTITCHSSQDINSNIGWLQQKPGKSFKGLIYHGTNLDDGVPSRFSGSGSGTDYTLTISSLQPEDFATYYCVQYAQFPWTFGGGTKLEIKR | 220 | 0.65 | 0.98
